This data set is described as follows: yeast display, Sf9 membrane polyspecificity reagent, FACS + sequencing; frameworks hold sequencing errors. The gist of the method:
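Nanobodies came from a synthetic yeast display library in Saccharomyces cerevisiae BJ5465, induced with galactose for 36–48 hours and stained for 1 hour at 4 °C with 10% biotinylated, detergent-solubilized Sf9 membrane reagent. Cells were enriched on streptavidin microbeads and then FACS-sorted, with low and high (top ~1%) gates set on anti-HA fluorescence for expression and streptavidin fluorescence for reagent binding. Each polyreactivity label reflects the gate a clone came from. Genes were amplified by colony PCR, sequenced by MiSeq 2 × 250 and filtered by CDR length.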
For “QVQHVESGGGLVQAGGSLRLSCAATGRIFKYYARGWYTQAPGKERELVAAISSTGGRTYYADSVKGRFTNSRDNAKNTVYLQMNSLKPEDTAVFSCAADYAWGDPGRARFGYWGQGTQVTVSS”, the “polyreactivity (PSR sort gate)” value is recorded as “high polyreactivity”. For “QVQLVESGGGLVQAGGSLLLSCAASGSTFIPYAMGWYRQAPWKERELVAAITWSSGSTYYADSVKVRFTISRDNAKNTVFLQMNSLKTEDTAVYYCARDRYSVFDYDYWGQGTQVTVSS”, the “polyreactivity (PSR sort gate)” value is on record as “low polyreactivity”.

For “QVQLVESGGGLVQAGGSLRLICAASGNIFSFNDMGWSRPAPGKERELVASITSGGRTNYADSVMGRFTISRDNAKNTVYLQMNSLKPEDTAVYYCAADYSVPTSQAYDYWGQGTQVTVSS”, the “polyreactivity (PSR sort gate)” value was “low polyreactivity”.

For the sequence “QVQLVESGGGLVQAGGSLRLSCAASGRTFRKYAMGWYRQAPGKERELVAAISWSGGSTYYANSVKGRFTISRDNAKNTVYLPMNSLKPVDTAVYYCAAVPVHTGSLYWGFTTGYDYWGQGTQVTVSS”, the “polyreactivity (PSR sort gate)” value is “low polyreactivity”. For “QVQLVESGVGLVQAVGSLRLSCAASGRIFPAYVMGWYRQAPGKERELVATIDNGGGTYYADSVKGRFTISCDNAKYTVYLQMNSLKPEDTAVYYCARDRHVRWGLKRDYWGQGTQVTVSS”, the “polyreactivity (PSR sort gate)” value is given as “low polyreactivity”.

Turning to “QVQLVESGGGLVQAGGSLRLSCAASGSTFRQNAMGWYRQAPRKERELVATIRTSGGTTYYADSVKGRFTISRDTAKNTVYLQMNSLKPVDTAVYYCAAVSYLFLYQGYPIAYPMYYWGQGTQVTVSS”, the “polyreactivity (PSR sort gate)” value is reported as “low polyreactivity”. For “QVQLVESGGGLVQAGGTLRISCAPSGSTCVVINMGWYRQAPGKERELVAAISYSGGSTYADSVKGRFTISRDNAKNTVYLQMNSLKLEDTAVYYCAARHYWWYDYWGQGTQVTVSS” the value was “low polyreactivity”; for “QVQLVESGGGLVQAGGSLSLSSAASGSIFVGNAIAWYRQAPGKERELVATISWSCGSTYYADSVKGRFTISRDYAKNNVYLQMNSRKPEDTAVYYCAAEFGGYDPYDYWGQGTQVTVSS”, “low polyreactivity”. For “QVQLVESGGGLVQAGGSLRLSCAASGFTFTYYAMGWYRQAPGTERELVAAISWRGTSTFYADSVKGRFTISRDNAKNTVYLQMNSLKPEDTAVYYCAAVGQWGYGYWGLGTQVTVSS” the value was “high polyreactivity”. In the case of “QVQLVESGGGLVQAGGSLRLSCAASGSIFQYNAMGWYRQAPGKERELVAAINGGGSTYYADSVKGRFTISRDNAKNTVYLQMNSLKPEDTAVYYCAADGGAYSYRGPGKFGIEDSWGQGTQVTVSS”, the “polyreactivity (PSR sort gate)” value was “low polyreactivity”. On to “QVQLVESGGGLVQAGGSLRLSCAASGSIFYFYDMGWYRQAPGKERELVAAISLDDGGTYYADSVKGRFTISRDNAKNTVYLQMNSLKPEDTAVYYCAADYYYWYQIYDYWGQGTQVTVSS”, for which the “polyreactivity (PSR sort gate)” value is listed as “high polyreactivity”. For “QDQLVESRGGLVQAGGSLRLSCAASGFTFYYYAMGWYRQAPGKERELVAAISSGGSTYYADSVKGRFTISRDNAKNTVYLQMNSLKPEDTAVYYCARLYRVGRYLFDVDSWGQGTQVTVSS” the value was “high polyreactivity”; for “QVQLVESGGGLVQAGGSLRLSCAASGSTFVGYTMGWYRQAPGKERELVASITSDGSTNYADSVKGRFTISRDNAKNTVYLQMNSLKPEDTAVYYCNADIRRHGGYAHEYWGQGTQVTVSS”, “low polyreactivity”. On to “QVQLVESGGGLVQAGGSLRLSCAASGSTFTYYAMGWYRQAPGKEREWVAAISGGGDTYYADSVKGRFTISRDNAKNTVYLQMTSLKPEDTAVYYCNARVWAKSPRGSQYNMYDYWGQGTQVTVSS”, for which the “polyreactivity (PSR sort gate)” value is on record as “high polyreactivity”. For “QVQLVESGGGLVQAGGSLRLSCAASGSTFIVNAMGWYRQAPGKERELVAAITGGGGSTYYADSVKGRFTISRDNAKNTVYLQMNSLKPEDTAVDYCAARIQYAFGADYYWGQGTQVTVSS”, the “polyreactivity (PSR sort gate)” value is “low polyreactivity”. Next, “QVQLVESGGGLVQAGGSLRLSSAASGFIFPVYTMGWYRQAPGTERELLAAITQIGGSTHYADSVKGRFTISRDNAKNTVYLQMNSLKPVDTAVYYFNAVPSYGTEYDYWGQGTQVTVSS”: “low polyreactivity”.

These data come from the nanobody polyreactivity screen of Harvey et al. (2022).
